In the supplement of paper PMC10126150:
± gives the standard deviation of the averaged measurements.

Tested on: ATP
Test: switch fluorescence ratio, 500 uM ATP over buffer (Cy3 cluster intensity, sum of 5 cycles each) (fold (ratio)); higher = stronger signal-on switching upon ATP binding; sequences stand for … in TCGTCGGCAGCGTCAGATGTGTATAAGAGACAGTTTTTTTTTTTTTTTTTTTTTTTTT…TC
Conditions: aptamer strand: ATP DNA aptamer (quencher-CACCTGGGGGAGTATTGCGGAGGAAGG + anchor), 100 nM annealed; ATP concentration: 500 uM
Summary of the method: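 For every switch-domain sequence, the fluorescence ratio is the mean of per-cluster values, each being summed target-cycle Cy3 intensity over summed buffer-cycle Cy3 intensity. Clusters outside 100-1000 RFU were excluded. On a modified Illumina MiSeq flow-cell, the Cy3-labelled switching-strand clusters were annealed to 100 nM quencher-labelled ATP aptamer, imaged in selection buffer and then after 15 min with 500 uM ATP at 22 °C. Five such cycles were run, with NaOH stripping and re-annealing between them.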
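Note: ATP exposure 15 min at 22 °C before imaging.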

Sequence	switch fluorescence ratio
CTTTATTGGG	0.972 ± 0.02
CTTTATTTAG	0.997 ± 0.023
CTTTATTTGC	1.05 ± 0.021
CTTTCATCTA	1.01 ± 0.03
CTTTCCCCGT	1.396 ± 0.0017
CTTTCCGTGC	1.32 ± 0.035
CTTTCTAAGG	1.02 ± 0.036
CTTTCTTTGG	0.99 ± 0.018
CTTTGAAAA	1.02 ± 0.02
CTTTGAAGAG	1.017 ± 0.0058
CTTTGAAGTT	1.01 ± 0.029
CTTTGCGTTT	1.02 ± 0.093
CTTTGGAGAC	1.06 ± 0.051
CTTTGGGCCC	0.98271 ± 0.0009
CTTTGTATTC	1.04 ± 0.022
CTTTGTCTTA	0.999 ± 0.05
CTTTGTGCGT	0.99 ± 0.029
CTTTTACTCG	1.01 ± 0.073
CTTTTAGGA	0.995 ± 0.021
CTTTTATCAC	1.25 ± 0.43
CTTTTATGGG	0.993 ± 0.023
CTTTTCTTCA	1.01 ± 0.046
CTTTTGGGGG	0.991 ± 0.028
CTTTTGTGTC	0.9866 ± 0.0071
CTTTTTAGTC	1.03 ± 0.013

Sequence	switch fluorescence ratio
CTTTTTATGG	1.03 ± 0.033
CTTTTTGAGG	0.983 ± 0.048
CTTTTTGGTA	0.9975 ± 0.0084
CTTTTTTTTC	1.03 ± 0.078
GAAAAAAAGA	1 ± 0.021
GAAAAAAATT	1.02 ± 0.024
GAAAAAGACT	1.04 ± 0.089
GAAAAATCGA	0.9882 ± 0.0056
GAAAAATTTC	0.99 ± 0.028
GAAAAGGTCA	1.04 ± 0.019
GAAAATAGTG	1.01 ± 0.029
GAAACTATTT	1.03 ± 0.05
GAAACTGGGG	1.02 ± 0.031
GAAAGAAACT	1.63 ± 0.98
GAAAGAAATG	0.9994 ± 0.003
GAAAGGGTTT	1.01 ± 0.048
GAAAGTGAGA	1.01 ± 0.056
GAAAGTGGTG	0.9921 ± 0.0055
GAAATAAAAG	0.9796 ± 0.0064
GAAATAAATA	0.9835 ± 0.0081
GAAATAATGG	1.03 ± 0.041
GAAATAGGG	0.983 ± 0.011
GAAATATGTG	0.9885 ± 0.0022
GAAATCATTA	1.016 ± 0.01
GAAATCCGAA	1.08 ± 0.058

Sequence	switch fluorescence ratio
GAAATCTTTT	1.07 ± 0.17
GAAATGAGAT	0.975 ± 0.01
GAAATGGGGT	0.977 ± 0.037
GAAATGGTAT	1 ± 0.011
GAAATTCGAG	1.01 ± 0.033
GAAATTTATA	1.05 ± 0.04
GAACAAGGAG	1.03 ± 0.077
GAACAAGGTG	1.14 ± 0.22
GAACATGGGC	1.012 ± 0.0084
GAACATTGGT	0.998 ± 0.042
GAACCGATGT	1.009 ± 0.0089
GAACCTTGAC	1.61 ± 0.14
GAACGAGAGG	1.01 ± 0.012
GAACGCGATT	3.92 ± 1.3
GAACGGAAGG	1.014 ± 0.0043
GAACGGGAAT	1.022 ± 0.00076
GAACGGGGCG	1.01 ± 0.099
GAACGGGGGG	0.9624 ± 0.0053
GAACGGTATT	1.06 ± 0.065
GAACGTCGGA	1.028 ± 0.0027
GAACGTGGCA	0.9956 ± 0.0095
GAACTAGGTT	0.9847 ± 0.0035
GAACTATTTC	1.036 ± 0.0019
GAACTCGATG	1.018 ± 0.0091
GAACTTAGAG	1.02 ± 0.03

Sequence	switch fluorescence ratio
GAACTTGATG	0.997 ± 0.036
GAAGAAAGGT	0.966 ± 0.064
GAAGAAGGTG	1.43 ± 0.018
GAAGAAGTAA	1.03 ± 0.013
GAAGAATTAA	1.0278 ± 0.00043
GAAGAGGGGT	1.01 ± 0.014
GAAGAGGGTG	1.03 ± 0.022
GAAGATGCGG	1.0002 ± 0.00028
GAAGATTATA	0.9865 ± 0.0044
GAAGCCGGAA	1.04 ± 0.021
GAAGCGGGGC	1.36 ± 0.064
GAAGCGGGGG	1.05 ± 0.02
GAAGCTGCTT	0.9908 ± 0.0073
GAAGCTTTAG	1.06 ± 0.019
GAAGGAGCAG	0.944 ± 0.029
GAAGGAGGGG	1.06 ± 0.036
GAAGGATTGT	1.02 ± 0.059
GAAGGCGGAT	1.01 ± 0.018
GAAGGCGGGA	1.03 ± 0.097
GAAGGGAGCG	0.984 ± 0.045
GAAGGGAGGT	0.987 ± 0.012
GAAGGGGCGA	0.972 ± 0.018
GAAGGGGGG	1.001 ± 0.0094
GAAGGGGGGT	0.997 ± 0.029
GAAGGGGGTT	0.973 ± 0.036
